The data set has as its target BMAL1 acetylated at Lys537 (ectopically expressed together with CLOCK), Q9WTL8.

Sequence of BMAL1 acetylated at Lys537 (ectopically expressed together with CLOCK), Q9WTL8 (Q9WTL8 other isoform, or with tags, fused parts or gaps): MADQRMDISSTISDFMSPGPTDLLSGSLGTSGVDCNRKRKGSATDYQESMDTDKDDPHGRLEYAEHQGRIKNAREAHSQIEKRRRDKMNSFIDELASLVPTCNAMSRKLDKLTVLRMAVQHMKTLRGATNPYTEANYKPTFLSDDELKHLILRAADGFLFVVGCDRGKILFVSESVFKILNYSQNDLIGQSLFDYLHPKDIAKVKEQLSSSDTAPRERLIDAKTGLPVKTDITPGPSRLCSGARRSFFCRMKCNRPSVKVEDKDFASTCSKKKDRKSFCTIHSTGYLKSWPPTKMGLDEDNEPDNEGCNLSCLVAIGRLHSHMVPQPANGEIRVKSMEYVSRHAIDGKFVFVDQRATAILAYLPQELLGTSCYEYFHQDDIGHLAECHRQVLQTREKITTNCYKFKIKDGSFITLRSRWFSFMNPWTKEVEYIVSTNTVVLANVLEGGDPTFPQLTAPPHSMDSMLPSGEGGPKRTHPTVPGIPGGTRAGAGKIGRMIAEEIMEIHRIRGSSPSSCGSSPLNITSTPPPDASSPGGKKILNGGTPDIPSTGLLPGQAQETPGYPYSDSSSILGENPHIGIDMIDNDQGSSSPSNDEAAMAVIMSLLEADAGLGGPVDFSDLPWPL

B1: Recombinant SIRT1 of the SIRT1 Fluorimetric Activity Assay/Drug Discovery Kit (AK-555; BIOMOL International) (protein)
chain: MADEAALALQPGGSPSAAGADREAASSPAGEPLRKRPRRDGPGLERSPGEPGGAAPEREVPAAARGCPGAAAAALWREAEAEAAAAGGEQEAQATAAAGEGDNGPGLQGPSREPPLADNLYDEDDDDEGEEEEEAAAAAIGYRDNLLFGDEIITNGFHSCESDEEDRASHASSSDWTPRPRIGPYTFVQQHLMIGTDPRTILKDLLPETIPPPELDDMTLWQIVINILSEPPKRKKRKDINTIEDAVKLLQECKKIIVLTGAGVSVSCGIPDFRSRDGIYARLAVDFPDLPDPQAMFDIEYFRKDPRPFFKFAKEIYPGQFQPSLCHKFIALSDKEGKLLRNYTQNIDTLEQVAGIQRIIQCHGSFATASCLICKYKVDCEAVRGDIFNQVVPRCPRCPADEPLAIMKPEIVFFGENLPEQFHRAMKYDKDEVDLLIVIGSSLKVRPVALIPSSIPHEVPQILINREPLPHLHFDVELLGDCDVIINELCHRLGGEYAKLCCNPVKLSEITEKPPRTQKELAYLSELPPTPLHVSEDSSSPERTSPPDSSVIVTLLDQAAKSNDDLDVSESKGCMEEKPQEVQTSRNVESIAEQMENPDLKNVGSSTGEKNERTSVAGTVRKCWPNRVAKEQISRRLDGNQYLFLPPNRYIFHGAEVYSDSEDDVLSSSSCGSNSDSGTCQSPSLEEPMEDESEIEEFYNGLEDEPDVPERAGGAGFGTDGDDQEAINEAISVKQEVTDMNYPSNKS
Take B1: the “in vitro deacetylation assay (immunoprecipitated Ac-BMAL1 with recombinant SIRT1, 5 mM NAD+ or 10 mM NAM, 90 min at 37 C; Western with Ac-BMAL1 antibody)” value was “SIRT1 readily deacetylates BMAL1 in an in vitro deacetylation assay”.

The values above are taken from patent publication US20110269817.
